Experimental data reported in paper PMC5770965, “pKID Binds to KIX via an Unstructured Transition State with Nonnative Interactions” (Biophysical Journal, 2017).
Non-standard residues stand in square brackets, D forms with d. No end group written: not given here. *: point of attachment. FITC = O=C1OC2(c3ccc(O)cc3Oc3cc(O)ccc32)c2ccc(NC(=S)*)cc21; pS = N[C@@H](COP(=O)(O)O)C(=O)O

B1: FITC-pKID wild-type (CREB residues 116-146, phosphorylated at Ser133) (peptide, UniProt P15337-1 116-146, looked up)
peptide: {FITC}-DSVTDSQKRREILSRRP[pS]YRKILNDLSSDAP
notes: also called wtFITCpKID; source: synthetic peptide, bought: Biomatik
B2: FITC-pKID D140A (peptide, UniProt P15337-1 116-146, looked up)
peptide: {FITC}-DSVTDSQKRREILSRRP[pS]YRKILNALSSDAP
notes: source: synthetic peptide, bought: Biomatik
B3: FITC-pKID E126A (peptide, UniProt P15337-1 116-146, looked up)
peptide: {FITC}-DSVTDSQKRRAILSRRP[pS]YRKILNDLSSDAP
notes: as for B2
B4: FITC-pKID E126G (peptide, UniProt P15337-1 116-146, looked up)
peptide: {FITC}-DSVTDSQKRRGILSRRP[pS]YRKILNDLSSDAP
notes: also called A126G; source: synthetic peptide, bought: Biomatik
B5: FITC-pKID I137A (peptide, UniProt P15337-1 116-146, looked up)
peptide: {FITC}-DSVTDSQKRREILSRRP[pS]YRKALNDLSSDAP
notes: as for B2
B6: FITC-pKID K136A (peptide, UniProt P15337-1 116-146, looked up)
peptide: {FITC}-DSVTDSQKRREILSRRP[pS]YRAILNDLSSDAP
notes: as for B2
B7: FITC-pKID K136G (peptide, UniProt P15337-1 116-146, looked up)
peptide: {FITC}-DSVTDSQKRREILSRRP[pS]YRGILNDLSSDAP
notes: also called A136G; source: synthetic peptide, bought: Biomatik
B8: FITC-pKID L128A (peptide, UniProt P15337-1 116-146, looked up)
peptide: {FITC}-DSVTDSQKRREIASRRP[pS]YRKILNDLSSDAP
notes: as for B2
B9: FITC-pKID L138A (peptide, UniProt P15337-1 116-146, looked up)
peptide: {FITC}-DSVTDSQKRREILSRRP[pS]YRKIANDLSSDAP
notes: as for B2
B10: FITC-pKID P132A (peptide, UniProt P15337-1 116-146, looked up)
peptide: {FITC}-DSVTDSQKRREILSRRA[pS]YRKILNDLSSDAP
notes: as for B2
B11: FITC-pKID P132G (peptide, UniProt P15337-1 116-146, looked up)
peptide: {FITC}-DSVTDSQKRREILSRRG[pS]YRKILNDLSSDAP
notes: also called A132G; source: synthetic peptide, bought: Biomatik
B12: FITC-pKID R124A (peptide, UniProt P15337-1 116-146, looked up)
peptide: {FITC}-DSVTDSQKAREILSRRP[pS]YRKILNDLSSDAP
notes: as for B2
B13: FITC-pKID R125A (peptide, UniProt P15337-1 116-146, looked up)
peptide: {FITC}-DSVTDSQKRAEILSRRP[pS]YRKILNDLSSDAP
notes: as for B2
B14: FITC-pKID R131A (peptide, UniProt P15337-1 116-146, looked up)
peptide: {FITC}-DSVTDSQKRREILSRAP[pS]YRKILNDLSSDAP
notes: as for B2
B15: FITC-pKID R135A (peptide, UniProt P15337-1 116-146, looked up)
peptide: {FITC}-DSVTDSQKRREILSRRP[pS]YAKILNDLSSDAP
notes: as for B2
B16: FITC-pKID R135G (peptide, UniProt P15337-1 116-146, looked up)
peptide: {FITC}-DSVTDSQKRREILSRRP[pS]YGKILNDLSSDAP
notes: also called A135G; source: synthetic peptide, bought: Biomatik
B17: FITC-pKID S121A (peptide, UniProt P15337-1 116-146, looked up)
peptide: {FITC}-DSVTDAQKRREILSRRP[pS]YRKILNDLSSDAP
notes: as for B2
B18: FITC-pKID S142A (peptide, UniProt P15337-1 116-146, looked up)
peptide: {FITC}-DSVTDSQKRREILSRRP[pS]YRKILNDLASDAP
notes: as for B2
B19: FITC-pKID S143A (peptide, UniProt P15337-1 116-146, looked up)
peptide: {FITC}-DSVTDSQKRREILSRRP[pS]YRKILNDLSADAP
notes: as for B2
B20: FITC-pKID S143G (peptide, UniProt P15337-1 116-146, looked up)
peptide: {FITC}-DSVTDSQKRREILSRRP[pS]YRKILNDLSGDAP
notes: the text prints S143G; also called A143G; source: synthetic peptide, bought: Biomatik
B21: FITC-pKID T119A (peptide, UniProt P15337-1 116-146, looked up)
peptide: {FITC}-DSVADSQKRREILSRRP[pS]YRKILNDLSSDAP
notes: as for B2
B22: FITC-pKID T119G (peptide, UniProt P15337-1 116-146, looked up)
peptide: {FITC}-DSVGDSQKRREILSRRP[pS]YRKILNDLSSDAP
notes: the peptide has Gly in place of the natural Thr119; also called A119G; source: synthetic peptide, bought: Biomatik
B23: FITC-pKID Y134A (peptide, UniProt P15337-1 116-146, looked up)
peptide: {FITC}-DSVTDSQKRREILSRRP[pS]ARKILNDLSSDAP
notes: as for B2
B24: FITC-KID, not phosphorylated at Ser133 (CREB residues 116-146) (peptide, UniProt P15337-1 116-146, looked up)
peptide: {FITC}-DSVTDSQKRREILSRRPSYRKILNDLSSDAP
notes: 'pSer to Ser' in the text; also called ∆pS133; pS133S; source: synthetic peptide, bought: Biomatik
B25: FITC-pKID I137A (peptide, UniProt P15337-1 116-146, looked up)
peptide: {FITC}-DSVTDSQKRREILSRRP[pS]YRKALNDLSSDAP
notes: as for B2
B26: FITC-pKID L128A (peptide, UniProt P15337-1 116-146, looked up)
peptide: {FITC}-DSVTDSQKRREIASRRP[pS]YRKILNDLSSDAP
notes: as for B2
B27: FITC-pKID L138A (peptide, UniProt P15337-1 116-146, looked up)
peptide: {FITC}-DSVTDSQKRREILSRRP[pS]YRKIANDLSSDAP
notes: as for B2
B28: FITC-pKID Y134A (peptide, UniProt P15337-1 116-146, looked up)
peptide: {FITC}-DSVTDSQKRREILSRRP[pS]ARKILNDLSSDAP
notes: as for B2

Tests used:
[1] = target: KIX domain of CBP KIX domain (UniProt P45481); assay: fluorescence anisotropy and stopped-flow kinetics; conditions: reference: unphosphorylated KID peptide (Ser133); sites S133
KIX domain of CBP KIX domain, sequence (P45481 whole entry, looked up, the tested form may be a part): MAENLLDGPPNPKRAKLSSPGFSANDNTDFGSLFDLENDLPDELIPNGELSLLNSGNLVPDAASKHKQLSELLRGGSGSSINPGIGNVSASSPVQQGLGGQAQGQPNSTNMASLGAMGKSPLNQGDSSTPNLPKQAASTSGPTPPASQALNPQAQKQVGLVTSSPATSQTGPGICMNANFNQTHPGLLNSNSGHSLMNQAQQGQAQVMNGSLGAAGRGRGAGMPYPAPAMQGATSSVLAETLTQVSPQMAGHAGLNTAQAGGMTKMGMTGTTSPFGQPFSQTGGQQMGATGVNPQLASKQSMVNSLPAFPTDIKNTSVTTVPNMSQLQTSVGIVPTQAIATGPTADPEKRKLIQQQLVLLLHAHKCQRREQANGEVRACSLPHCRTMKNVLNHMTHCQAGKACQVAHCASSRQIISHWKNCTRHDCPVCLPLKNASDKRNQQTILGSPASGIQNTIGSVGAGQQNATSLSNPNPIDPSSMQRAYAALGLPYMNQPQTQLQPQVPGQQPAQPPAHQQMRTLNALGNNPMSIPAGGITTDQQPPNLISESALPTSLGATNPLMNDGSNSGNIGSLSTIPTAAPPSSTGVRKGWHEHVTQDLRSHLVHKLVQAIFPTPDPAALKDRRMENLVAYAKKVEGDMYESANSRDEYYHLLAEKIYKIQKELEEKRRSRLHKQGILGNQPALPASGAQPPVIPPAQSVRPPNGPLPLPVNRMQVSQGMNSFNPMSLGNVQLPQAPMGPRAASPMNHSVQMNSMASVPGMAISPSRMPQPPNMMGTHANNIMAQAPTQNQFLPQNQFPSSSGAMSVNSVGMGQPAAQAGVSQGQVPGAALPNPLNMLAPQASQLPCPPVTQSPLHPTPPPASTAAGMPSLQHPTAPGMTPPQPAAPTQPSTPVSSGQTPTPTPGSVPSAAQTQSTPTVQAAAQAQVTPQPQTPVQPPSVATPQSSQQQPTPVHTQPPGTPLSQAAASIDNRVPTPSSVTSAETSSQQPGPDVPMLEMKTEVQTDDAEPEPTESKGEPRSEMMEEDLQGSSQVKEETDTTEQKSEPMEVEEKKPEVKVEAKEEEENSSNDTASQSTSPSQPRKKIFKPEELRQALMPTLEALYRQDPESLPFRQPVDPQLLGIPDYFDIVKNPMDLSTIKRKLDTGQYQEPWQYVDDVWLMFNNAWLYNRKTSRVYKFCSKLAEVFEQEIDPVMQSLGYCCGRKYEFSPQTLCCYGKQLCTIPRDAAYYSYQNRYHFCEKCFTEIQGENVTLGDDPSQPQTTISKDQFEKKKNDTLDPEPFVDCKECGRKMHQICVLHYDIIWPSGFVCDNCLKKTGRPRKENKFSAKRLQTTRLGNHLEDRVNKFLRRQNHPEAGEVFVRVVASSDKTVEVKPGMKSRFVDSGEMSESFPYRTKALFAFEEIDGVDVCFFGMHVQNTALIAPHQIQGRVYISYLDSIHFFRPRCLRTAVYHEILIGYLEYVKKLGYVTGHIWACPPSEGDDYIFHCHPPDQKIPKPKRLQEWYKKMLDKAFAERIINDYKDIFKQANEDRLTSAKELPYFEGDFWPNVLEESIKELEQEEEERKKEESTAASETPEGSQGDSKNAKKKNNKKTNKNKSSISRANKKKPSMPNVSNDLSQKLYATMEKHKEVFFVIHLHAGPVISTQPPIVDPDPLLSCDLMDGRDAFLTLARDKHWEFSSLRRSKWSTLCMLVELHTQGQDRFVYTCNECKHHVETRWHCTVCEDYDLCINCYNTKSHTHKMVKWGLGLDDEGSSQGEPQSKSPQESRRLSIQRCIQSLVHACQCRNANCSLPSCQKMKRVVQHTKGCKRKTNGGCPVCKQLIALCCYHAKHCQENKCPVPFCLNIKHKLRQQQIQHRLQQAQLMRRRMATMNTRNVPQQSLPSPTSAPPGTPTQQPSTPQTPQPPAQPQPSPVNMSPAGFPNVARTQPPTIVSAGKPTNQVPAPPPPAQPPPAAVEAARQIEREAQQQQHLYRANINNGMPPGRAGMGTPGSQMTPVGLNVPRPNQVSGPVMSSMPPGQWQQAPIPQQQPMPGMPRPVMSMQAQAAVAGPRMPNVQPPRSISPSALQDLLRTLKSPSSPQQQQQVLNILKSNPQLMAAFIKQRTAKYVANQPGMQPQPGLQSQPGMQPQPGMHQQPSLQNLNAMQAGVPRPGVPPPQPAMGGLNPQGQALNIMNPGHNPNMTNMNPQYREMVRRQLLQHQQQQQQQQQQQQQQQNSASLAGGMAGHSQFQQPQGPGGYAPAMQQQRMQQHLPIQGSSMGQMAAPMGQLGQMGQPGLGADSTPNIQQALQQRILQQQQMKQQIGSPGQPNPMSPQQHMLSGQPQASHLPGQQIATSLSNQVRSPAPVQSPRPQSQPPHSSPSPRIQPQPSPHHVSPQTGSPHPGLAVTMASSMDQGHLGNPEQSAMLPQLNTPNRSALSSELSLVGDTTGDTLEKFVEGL

KIX domain of CBP [2] = target: T1, KIX domain of CBP (UniProt P45481 586-665); assay: stopped-flow fluorescence (association kinetics); pseudo-first order conditions with KIX in excess over FITC-pKID; biphasic; kass,fast = gradient of the observed fast rate against KIX concentration; conditions: both partners purified
T1 sequence (P45481 586-665): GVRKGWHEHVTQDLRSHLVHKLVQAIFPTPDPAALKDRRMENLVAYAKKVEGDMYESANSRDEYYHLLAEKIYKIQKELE

KIX domain of CBP [3] = target: T1, KIX domain of CBP; assay: fluorescence polarisation; equilibrium fluorescence anisotropy; KIX titrated into N-terminally FITC-labelled pKID peptide; biophysical buffer and conditions as in the accompanying article (ref. 42); KdEqub; conditions: both partners purified
KIX domain of CBP [4] = target: T1, KIX domain of CBP; assay: stopped-flow fluorescence (association kinetics) + dissociation kinetics by competition; KdKin calculated as kdiss/kass,fast; conditions: both partners purified
KIX domain of CBP [5] = target: T1, KIX domain of CBP; assay: dissociation kinetics by competition; FITC-pKID displaced from KIX by unlabeled competitor cMybTAD; kdiss = asymptote of the observed dissociation rate against competitor concentration; conditions: both partners purified
KIX domain of CBP [6] = target: T1, KIX domain of CBP; assay: stopped-flow fluorescence (association kinetics); pseudo-first order conditions with KIX in excess over FITC-pKID; biphasic; kass,fast = gradient of the observed fast rate against KIX concentration; conditions: both partners purified; remark: listed apart in the source
KIX domain of CBP [7] = target: T1, KIX domain of CBP; assay: dissociation kinetics by competition; FITC-pKID displaced from KIX by unlabeled competitor cMybTAD; kdiss = asymptote of the observed dissociation rate against competitor concentration; conditions: both partners purified; remark: listed apart in the source
KIX domain of CBP [8] = target: T1, KIX domain of CBP; assay: stopped-flow fluorescence (association kinetics) + dissociation kinetics by competition; KdKin calculated as kdiss/kass,fast; conditions: both partners purified; remark: listed apart in the source
KIX domain of CBP [9] = target: T1, KIX domain of CBP; assay: fluorescence polarisation; equilibrium fluorescence anisotropy; KIX titrated into N-terminally FITC-labelled pKID peptide; biophysical buffer and conditions as in the accompanying article (ref. 42); KdEqub; conditions: both partners purified; remark: listed apart in the source
KIX domain of CBP [10] = target: T2, KIX domain of CBP (UniProt P45481 586-666); assay: fluorescence polarisation; equilibrium fluorescence anisotropy of N-terminally FITC-labelled pKID peptides with KIX; buffer and conditions as in the accompanying article (ref. 42); conditions: both partners purified
T2 construct: PDB 1KDX is the cited pKID/KIX structure and need not have the same limits
T2 sequence (P45481 586-666): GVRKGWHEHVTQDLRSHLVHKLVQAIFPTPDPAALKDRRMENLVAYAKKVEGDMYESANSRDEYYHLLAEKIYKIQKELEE

Row | Molecule | kon (KIX domain of CBP [2]) | Kd (KIX domain of CBP [3]) | Kd (KIX domain of CBP [4]) | koff (KIX domain of CBP [5]) | kon (KIX domain of CBP [6]) | koff (KIX domain of CBP [7]) | Kd (KIX domain of CBP [8]) | Kd (KIX domain of CBP [9]) | further results
1 | CREB (KID / pKID region) 116-146 (from UniProt P15337-1) pSer133 pKID peptide | – | – | – | – | – | – | – | – | binding against the reference [1]: stronger
2 | B1 | 7.3e+06 M⁻¹ s⁻¹ | 110 nM | 110 ± 20 nM | 0.81 s⁻¹ | – | – | – | – | –
3 | B2 | 5.3e+06 M⁻¹ s⁻¹ | 260 nM | 390 ± 50 nM | 2.06 s⁻¹ | – | – | – | – | –
4 | B3 | – | – | – | – | 1.05e+07 M⁻¹ s⁻¹ | 0.97 s⁻¹ | 90 ± 10 nM | 170 nM | –
5 | B4 | – | – | – | – | 7.6e+06 M⁻¹ s⁻¹ | 2.09 s⁻¹ | 280 ± 30 nM | 250 nM | –
6 | B5 | 4.5e+06 M⁻¹ s⁻¹ | 21600 nM | 9730 ± 1920 nM | 43.9 s⁻¹ | – | – | – | – | –
7 | B6 | – | – | – | – | 1.02e+07 M⁻¹ s⁻¹ | 0.94 s⁻¹ | 90 ± 10 nM | 100 nM | –
8 | B7 | – | – | – | – | 8.3e+06 M⁻¹ s⁻¹ | 10.5 s⁻¹ | 1270 ± 250 nM | 2160 nM | –
9 | B8 | 7.9e+06 M⁻¹ s⁻¹ | 2490 nM | 2000 ± 160 nM | 15.7 s⁻¹ | – | – | – | – | –
10 | B9 | 2.8e+06 M⁻¹ s⁻¹ | 6300 nM | 4730 ± 1920 nM | 13.2 s⁻¹ | – | – | – | – | –
11 | B10 | – | – | – | – | 7.7e+06 M⁻¹ s⁻¹ | 0.99 s⁻¹ | 130 ± 10 nM | 70 nM | –
12 | B11 | – | – | – | – | 8.3e+06 M⁻¹ s⁻¹ | 3.22 s⁻¹ | 390 ± 10 nM | 440 nM | –
13 | B12 | 8.4e+06 M⁻¹ s⁻¹ | 60 nM | 60 ± 20 nM | 0.51 s⁻¹ | – | – | – | – | –
14 | B13 | 6.3e+06 M⁻¹ s⁻¹ | 220 nM | 340 ± 30 nM | 2.17 s⁻¹ | – | – | – | – | –
15 | B14 | 9.5e+06 M⁻¹ s⁻¹ | 1230 nM | 810 ± 140 nM | 7.66 s⁻¹ | – | – | – | – | –
16 | B15 | – | – | – | – | 1.05e+07 M⁻¹ s⁻¹ | 2.5 s⁻¹ | 240 ± 20 nM | 100 nM | –
17 | B16 | – | – | – | – | 8e+06 M⁻¹ s⁻¹ | 10.1 s⁻¹ | 1260 ± 70 nM | 1160 nM | –
18 | B17 | 6.9e+06 M⁻¹ s⁻¹ | 120 nM | 100 ± 20 nM | 0.71 s⁻¹ | – | – | – | – | –
19 | B18 | 1.13e+07 M⁻¹ s⁻¹ | 120 nM | 70 ± 10 nM | 0.83 s⁻¹ | – | – | – | – | –
20 | B19 | – | – | – | – | 9.7e+06 M⁻¹ s⁻¹ | 0.71 s⁻¹ | 70 ± 10 nM | 70 nM | –
21 | B20 | – | – | – | – | 6.3e+06 M⁻¹ s⁻¹ | 1.2 s⁻¹ | 190 ± 20 nM | 90 nM | –
22 | B21 | – | – | – | – | 7.3e+06 M⁻¹ s⁻¹ | 0.88 s⁻¹ | 120 ± 10 nM | 150 nM | –
23 | B22 | – | – | – | – | 7.1e+06 M⁻¹ s⁻¹ | 0.67 s⁻¹ | 90 ± 10 nM | 80 nM | –
24 | B23 | – | 111000 nM | – | – | – | – | – | – | –
25 | B24 | 7.6e+06 M⁻¹ s⁻¹ | 28700 nM | 7500 ± 1300 nM | 56.7 s⁻¹ | – | – | – | – | –
26 | B25 | – | – | – | – | – | – | – | – | fold increase of Kd against wild type (KIX domain of CBP [10]): ~100 fold
27 | B26 | – | – | – | – | – | – | – | – | fold increase of Kd against wild type (KIX domain of CBP [10]): > 10 fold
28 | B27 | – | – | – | – | – | – | – | – | fold increase of Kd against wild type (KIX domain of CBP [10]): > 10 fold
29 | B28 | – | – | – | – | – | – | – | – | fold increase of Kd against wild type (KIX domain of CBP [10]): ~1000 fold
